Measured values published in the DeepSol protein solubility set.

Assay: soluble on expression in E. coli; label from the status in PepcDB or PDB records

Sequence	soluble on expression in E. coli
MYNVIGVRFKKAGKIYYFDPNGFHIEHDSCVIVETVRGVEYGQVVIANKQVDEHDVVLPLRKVIRVADDRDLLIVEENKQEALSAFDICQKKVIEHGLDMKLVDVEFTFDRNKVIFYFTADGRVDFRELVKDLASIFKTRIELRQIGVRDEAKMLGGIGPCGRMLCCSTFLGDFEPVSIKMAKDQNLSLNPTKISGLCGRLMCCLKYENDEYETAKEQLPDIGEMITTANGPAKVVGLNILERVLQVELINREKVIEYTWEELLEEGVVSAQTTDLEHHHHHH	not soluble
MYRKGAQAERELIKLLEKHGFAVVRSAGSKKVDLVAGNGKKYLCIEVKVTKKDHLYVGKRDMGRLIEFSRRFGGIPVLAVKFLNVGWRFIEVSPKIEKFVFTPSSGVSLEVLLGIQKTLEGKS	soluble
MYSPQTFFLQEVKGQKPDGLGGLIDDWGLFKEVSGYIDLVTGTDETTKQNAFVEESTHILIIPEFIEGITDNMRVVDQTNRYYDITYSDNPVGIKHHNEIYLKFEGVLSGEE	not soluble
MYTLREPYKGYEVKVTLLPIEDIVIPPIQRDLSETLIKKLMLSIEKVGFVDPILVVEGEEGKYEVINGQHRLKAAELLGIREIPAIILPQETKDYIISLNVEKAPNLKDKAHQAYEIFMKYLKENPEMEEVELENMVEEPYFLTVGFITDRFGEKRFPAYAFEKVLKKVDEFLGLPLEEAERERENRANVLRDVREVMEEKYQELGLTNALHKEAIISKAFQSVYGKRVRKVDDDFYTVFEKIKEAIPRVSFTEEELESF	soluble
MYYGFDIGGTKIALGVFDSTRRLQWEKRVPTPHTSYSAFLDAVCELVEEADQRFGVKGSVGIGIPGMPETEDGTLYAANVPAASGKPLRADLSARLDRDVRLDNDANCFALSEAWDDEFTQYPLVMGLILGTGVGGGLVLNGKPITGQSYITGEFGHMRLPVDALTLMGFDFPLRRCGCGQMGCIENYLSGRGFAWLYQHYYDQSLQAPEIIALWEQGDEQAHAHVERYLDLLAVCLGNILTIVDPDLLVIGGGLSNFTAITTQLAERLPRHLLPVARAPRIERARHGDAGGMRGAAFLHLTD	soluble
NALPAGNYLVASPQRYNPPGVLDSQTELPRLLAQARREVRVQLLDYAPLSYGPDKTRPYYAVIDNAIRSAAARGVSIKLMVSDWNTGMPEVAYLKSLALVPNVQVRIVTLPVAAEGFIPYARVIHSKTMDIDDQVAWVGTSNWLGGYLDNSRNLEVVMHDSTMAKRIGVLHEQLWDGPYAKPIDINRDYPEPH	not soluble
NDDIIVNWVNETLREAEKSSSISSFKDPKISTSLPVLDLIDAIQPGSINYDLLKTENLNDDEKLNNAKYAISMARKIGARVYALPEDLVEVNPKMVMTVFACLMGKGMKRV	soluble
NGEHTTDIEEQYLEAIRGATQRITLANAYFFPSYRFLRELRNASRRGVKVTLILQGQPDMPFVRVCSRLTYTYLLRDGVVIHEYKQRALHGKVALIDQEWSTVGSSNLDPLSLALNLEANLFIRDKALNQHLQGHLMELAAAHSTQMSLKGAAR	not soluble
NKNFWLGVRGNFTYATGKYEYVEEPYRPYPWLSHIGKRIEQSYGLVAERLFIDEEDIANSPVQTYGEYMPGDIKYKDINNDGIINDEDIVPIGFAKSPEIVYGFGVSMGYKNFDISCFFQGAARSSFFINSKATNPFMQMDLGGNNLNGMMQAYADDYWSESNRNIYATFPRLSTTDIANNNRNSTWWLRDGSYLRLKSVEIGYTLPKRLTSHLGMSNLRIYASGLNLFAWNRFKLWDVEQGNDGMQYPIQAVYNFGINLSF	not soluble
NLREDGEKAAREVKLLLLGAGESGKSTFLKQMRIIHGQDFDQRAREEFRPTIYSNVIKGMRVLVDAREKLHIPWGDNKNQLHGDKLMAFDTRAPMAAQGMVETRVFLQYLPAIRALWEDSGIQNAYDRRREFQLGESVKYFLDNLDKLGVPDYIPSQQDILLARRPTKGIHETHFTFKDLHFKMFDVGGQRSERKKWFECFEGVTAIIFCVALSDYDQVLMEDRQTNRMHESMKLFDSICNNKWFTDTSIILFLNKKDLFEEKIKKSPLTICYPEYAGSNTYEEAAAYIQCQFEDLNKRKDTKEIYTHFTCATDTKNVQFVFDAVTDVIIKNNLKDCGLF	soluble
NNDITAENNNIYKAAKDVTTSLSKVLKNIN	soluble
NPVSKRSRGKGMLGGAKRAARTHRASGTAVEELVFPYEHPVPQVGTLTSVELTIPLMRDGVVVEGLPTLEESRAYLAQQLVTIPWEGLALSRDEPVLATRHVGFDQ	not soluble
NQIYLPMVDFRPFKVGKSLRELTQAPAGAPEDVYEYVFVYEKNGKRQEFDMDHLPDDSWTYVDRHEKLIKKGYTPPVTDFLLLRGGEDVTSEIVNKKGITLLLLSPDWENASDDKMDNISEMYDYAQEHAWDFYGVSASTSDDISTWRYNTGADYPMLFLDAVTVKTITRGNPSLVILRDGVIRGKVSDANFPGVGQAQAFFDRYIGNELYQPS	not soluble
NQLLGMHQIEKEMTQYFGIQRCIVVAGDSDIQKKVLSDFGDVLTNTLNLLLPNGENTIAVMGGTTMAMVAENMGSLETEKRHNLFVPARGGIGEAVSVQANSISAVMANKTGGNYRALYVPEQLSRETYNSLLQEPSIQEVLTLISHANCVVHSIGRALHMAARRKMSDDEMVMLKQKNAVAESFGYFFDEEGKVVYKIPRIGLQLKNLQEIPYVVAIAGGKTKAKAIRAYMKNAPKQTWLITDEAAANEILKGVTL	not soluble
NRRIVARLIGLGDSIDAIIKNDLSHPIVVDGNDEIGRLSEKLIEYGEKVQEIQRTNALSLINNTTASLITSDLNGVVESANLSARKLLKLGEVNESYPIWEYFPESCREQLKKVFDGSHLWIELGKIHVTLSLGDEKPKYVRFDIRPFAHGAEYKLIMTITDVTHQEMTTRTLESRVLEKTQDLLLKNQQLENEIEERIRTEDNLKKTQDELIQAAKMAVVGQTMTSLAHELNQPLNAMSTYLYSARMFLEQESPEKVGESITHIEGLATRMSKIINSLRQFARKPEGEREVKFVSVHEVAEQASTIVNTRAKRQQIIIENQLPDDVKVQGDMLALEQVFINVLVNSCDALMESTRDEQKRIQMALVERTSQTTLIAISDNGIGFGEEIVQRIFQPFVSTKEVGLGLGMNICKSLIEKHKGSIYLASSLEKGAMVVLELPNEQ	not soluble
NRYQDLEKQVITTGNSIIEPLAIASESHLLAESREAVRRLISYAHRKNSKLVRSIAVFDEHHELFVTSNFHPNFEALMFPKDKPIPKLGNSEIYENSLILRVPILSEGHYLSELSNENQGTKAIGYIAVEMDLSSLRLQQYQE	not soluble

Sequence	soluble on expression in E. coli
NTMRSFILRARSAPTDSQRLLDEIGGKCHTEILAHCMMNSLFTAQSHREDVVIHLVLESTRDYSRTITVEANEISDVGGFHEAALIALLVKALDASVGMGKEQTRVVQPGLTVRTISFEALLGELAEHHSLYMMDKKGDSIRDIKIGPNPCFILTDHIPMPKKSGNSMKRLGVEKISLGPKMLFASQCVTLIHNEIDHQEA	not soluble
NYAPAVAEAFYRGIPLVAVTADRPAEWIDQDEGQTIRQEGAMAGFVKSYCSLRAEFDTSASAWYANRRLNEVLNHALMPRRGPVHINMSFCEPLYGTSSGYSGKERAITFVRERQELPEEVWDMLVKRFLEAPRVMIVAGFYPPDEDVSAALQDICKFPHTVLFAESLSNIRTDTGICTADRVLAAAGEDESLYPELLISFGGSLISRMLKTFLRRAKPAEHWGIDERFPAPDTFCALTHHICTGASGFWKEFAGRLKDKAPESLSPEGISYAGSWQKIKRKADLLHRTFMADAGWSDLKAFEVILRHIPHDAALHAANSTPVRYLQLFEHAHYAGGEWSNRGTNGIEGATSTAMGFSE	not soluble
NYYERHIGDYARDTGYLSVLEHGIYCLLLDRYYATEQPIPANKAHRIARAHSKKEKSAVDVVLDEFFLLQ	not soluble
PATDWLSAETFESDLDETRVPEVPSSLHVRPLVTSIVVSWTPPENQNIVVRGYAIGYGIGSPHAQTIKVDYKQRYYTIENLDPSSHYVITLKAFNNVGEGIPLYESAVTRPHT	soluble
PDGPTQLRALNLTEGFAVLHWKPPQNPVDTYDIQVTAPGAPPLQAETPGSAVDYPLHDLVLHTNYTATVRGLRGPNLTSPASITFTTGLEAPRDLEAKEVTP	soluble
PDIHHPSDFSIQKLSKDEDNYVAWKIRFRSFLRVTKKFGFIDGTLPKPDPFSPLYQPWEQCNAMVMYWLMNSMTDKLLESVMYAETAHKMWEDLRRVFVPCVDLKIYQLRRRLATLRQGGDSVEEYFGKLSKVWMELSEYAPIPECKCGGCNCECTKRAEEAREKEQRYEFLMGLKLNQGFEAVTTKIMFQKPPPSLHEAFAMVKDAESMMKWYSR	not soluble
PDVKCVCCTEGKECACFGQDCCVTGECCKDGTCCGI	soluble
PEQDIVYISASSGSTGVPTASPFTQSDFDGWIDYEARQFWSSGMRPSDRYVHSLNFSLFIGGPCVLGAQKLGALTIHAGTIPSDRLLQILRQFQATVIWTTPSYAWYLGETAIKEGYDLRKDLAVRRIFVAGEPGGSIPETRNRIEQLWGASVYDYYGLSDIFGSCAGMCEQKE	not soluble
PESPLRSGRREIANILGVAAQVQRQVAEALRNNNTDGIVDALVRARGTQGQINQMIAAANMGKETIQASPLLWAQRQRIRSMMRILNPVDNAMRNTRVLARRALVLCEDNDEVSGRQIQIIEQLAEVSEDLSNLYYGNSKLSENAEIPRLVNNLKMIGSRTGLEVSEGKVLSAQVVLAQSRSLVVDLLQICGQSRRSAVEILSPTSMHPASVKEIWNDDV	not soluble
PFEPLITAVIETSLNTLIKDDPALGRRLARLKGQVIQVHLKEIDKTLTFVFSQQIDVLGNYEGQPDCYLSLNLSVLPELRDQANITRLIKQDKLELEGDIQLAQKFSQLMTDCKPDIEEWLSRVTGDVVAHTLVQGTKNVGGFFVSQAEKHQRHLAQVVTEEWKLAPAPLEVAYFCDQVDEVRSQASRVEARLNALLSKVGSDKPA	not soluble
PFWSCLHNQLWNYREADQNRINRNQLPLYGVEGRFERMNQHPNAGSHSFSIGVTEVLNSNLLIELRADDIEYVYQRSPGKIISVIIPTFEALTQFGVATITTQNTGEVEASYSLTFDCSTGVTLMEEQYFIIKPKETSIRSFKIYPTTNQAAKYTCSAILKDSDFSEVDRAECQFSTMATVLDNGSQITPFQPPKSSINDFFESIESIGKKLWEGLRDFITGKACRRKCSSFFDFSCHIQYIC	not soluble
PIEGEKVDLRIMSTTDLHTNLVNYDYYQDKESQKIGLAKTAVLIEEAKKENPNTVLVDNGDVIQGTPLGTYKAIVKPVAENEEHPMYQAMNALGYDASTLGNHEFNYGLDYLKKIIATANLPILNANVLDFKTHQPVFKTYDIITKTFKDSTGRAVALNIGITGIVPPQILNWDKANLEGKVIVKDSVKAIEEIVPTMRAKGADVILVLSHSGIGDDRYEEGEENVGYQIASIKGVDAVVTGHSHAEFPSGNGTGFYEKYTGVDGINGKINGTPVTMAGKYGDHLGIIDLGLSYTNGKWQVSESSAKIRKIDMNSTTADERIIALAKEAHDGTINYVRQ	not soluble
PKLVCLVSSSNSFATFLAEEIPIISNKGIGVKGIKLKAEEKVRFAMPLQD	not soluble
PKPLVILAHEIYGVNSHMKKMGRLIKMAGYDVLTPNLLGEDEVYTLKEEKTAYEQFTKHERLKTGETIIQPVIRQNAGRHIFVIGFSVGATIAWKCSSMPEVSGSVCYYGSRIRDSLHHMPACPVLLFFPNYEPSFDVALLIKKLREKQHTHLEIYQFDALHASP	not soluble
PRKRFIYLERKISPAMASYIKELKIPGIHLRKESKRFYPTGEISAHLIGFTNVDDKGIEGIERMYDDLLTGTGGAKRFRKDAKGRKIEIISVEEPEQAQDITLSID	not soluble
